Assay results from paper PMC2173848 (The Journal of Cell Biology, 2002).

Molecular target: T1, GST-Sec34p (S. cerevisiae, UniProt P40094 1-801)
T1 sequence (looked up): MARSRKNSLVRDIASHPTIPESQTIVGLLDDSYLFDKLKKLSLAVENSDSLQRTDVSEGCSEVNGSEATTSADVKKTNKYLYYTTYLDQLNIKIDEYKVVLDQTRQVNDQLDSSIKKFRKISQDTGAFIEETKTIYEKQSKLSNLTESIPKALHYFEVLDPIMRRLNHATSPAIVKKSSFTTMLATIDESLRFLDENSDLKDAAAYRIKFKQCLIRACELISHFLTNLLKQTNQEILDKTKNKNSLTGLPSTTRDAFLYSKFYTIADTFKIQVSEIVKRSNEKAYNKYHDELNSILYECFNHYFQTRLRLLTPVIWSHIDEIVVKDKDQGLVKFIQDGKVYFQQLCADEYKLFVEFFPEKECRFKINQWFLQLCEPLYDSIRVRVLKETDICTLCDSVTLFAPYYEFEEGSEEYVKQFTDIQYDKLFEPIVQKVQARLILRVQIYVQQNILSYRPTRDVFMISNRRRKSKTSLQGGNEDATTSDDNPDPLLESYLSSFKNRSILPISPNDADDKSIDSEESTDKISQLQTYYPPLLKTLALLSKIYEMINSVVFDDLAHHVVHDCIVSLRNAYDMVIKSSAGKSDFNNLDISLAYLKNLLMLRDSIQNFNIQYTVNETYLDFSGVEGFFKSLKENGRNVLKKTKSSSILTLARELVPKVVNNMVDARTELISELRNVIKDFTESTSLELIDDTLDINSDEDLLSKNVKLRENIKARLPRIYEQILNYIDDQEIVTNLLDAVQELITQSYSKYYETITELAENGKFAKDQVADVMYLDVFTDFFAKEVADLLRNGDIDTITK
Test: pull-down

percent recovered on the beads: ~3%
B1: Sec35p (natural protein, S. cerevisiae (endogenous in yeast), UniProt P53271 1-262, looked up)
chain: MDFLNDDELDLDLPVTAEISKELFATEIEKYRESETNGTDVDNFDVDRFLVQKNFHYLPLDSLIRDLSGLSQKMVQTLLEQIRSNYDDYLTFSNTYTDEENETLINLEKTQSDLQKFMTQLDHLIKDDISNTQEIIKDVLEYLKKLDEIYGSLRNHSQLTEALSLGKRLSKSLHEMCGIEPLEEEICSGLIEQLYKLITASRRILESCADSNSPYIHHLRNDYQDLLQEFQISLKILTEKCLENPSSLQNLSLTLVSIIKTA
